Biological target: human histones H3.1–H4 tetramer (human) (UniProt P68431)
Experiment: ITC; MicroCal PEAQ-ITC, 20°C, 20 mM Tris-HCl pH 7.5, 500 mM NaCl; 300 μM DNAJC9 HBD in the syringe, 30 μM (dimers) H3-H4 in the cell; one set of sites model; n = 3

Sequence of DNAJC9 HBD (171–249), GST tag removed (Q8WXX5 171-249): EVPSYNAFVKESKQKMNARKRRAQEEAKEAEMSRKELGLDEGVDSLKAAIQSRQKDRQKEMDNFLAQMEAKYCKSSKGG

Kd: 0.0395 µM
Substance: DNAJC9 HBD (171–249), GST tag removed (from UniProt Q8WXX5 171-249) (domain or fragment)

From PMC8221569
